Data: the DeepSol protein solubility set

assay: soluble on expression in E. coli; label from the status in PepcDB or PDB records

Sequence | soluble on expression in E. coli
MDRTTPWQQQPIRYSADLEKPSPREQADIEKIMAKLLKNNERAYDKYKHGLRDAHAKSHAILRGELIVNEGLPPELAQGLFAEPRTYPVIARLSSTSGVRRSDKTRGVRGLGLKVLGVQGEKILPDDSSTNQDFVMVTHEDFLFADAHAYAGLGMITASLLARLSDQALWLGSGLLDLVSKAGIKLPDNLMVFVAPNRPILGLEFFSSAPFRHGDHVAKYRFAPASENVKALSGQLLPRNPAPEQHRDMIAEFFADQTAEFDFSAQLCTDPVAMPIEDAGKNWDKSISPYVSVAKIVFGPQNPYSALRRAYGDDVLAFNSWRGLAEHRPLGSINRLKKTVYESSADYRHRVNRIDRHEPVDISELPDLEHHHHHH | soluble
MDRVESLANQIFEDYKDYGVDRKEIVEKLRKLLIEFRVPENEAVRTIRNYIIREYGAPATVRRERITKIEEIKEPNKWVTVKAKVIQLWESSSPSIAQVGLIGDETGYIRFLVWTKAKKQPVDEGKSYIFRNVVVDDYGGVLRLNVTKISEIEEIEEDVKVKPPEELSEDVEVVGALVAIQQNSGLIQRCSVEGCNRVIKMGKCPEHGKTKAKDDLRIKGVLDDGYRTYEVIINEEGVESLTGINLEKAKKIAEETLDRGAVLTELKKMLLGKYLRVVGTATPRYLIAKHVEFFRPDIRKEIEKVKALLEEV | not soluble
MDSALFKTIALIGKHKNPDIVIPLLSLAEYLTDRGISVVLDSLTAAHISNSRYPILTLEEIGKQADLAIVLGGDGTMLNIARALVPFSVPLIGINQGRLGFLTDLTADTMHETLNDMLAGQFVVENRMLLTVEVTRNGESVFKELAFNDVVLHRGISSGMIELEVHINGEYVYSLRSDGLIIATPTGSTAYALSSGGPILHPGLNLMTLVPICPHTLSNRPIVIGADATIEIKVHFTTEIKIYTDSHSWFDLSEHDRVFIQRCPETIKLLHPVHHSYYRMLREKLGWSGILQKNSRLEHHHHHH | not soluble
MDSEEPPNVRVACSGDIDEVVRLMHDAAAWMSAKGTPAWDVARIDRTFAETFVLRSELLVASCSDGIVGCCTLSAEDPEFWPDALKGEAAYLHKLAVRRTHAGRGVSSALIEACRHAARTQGCAKLRLDCHPNLRGLYERLGFTHVDTFNPGWDPTFIAERLELEI | not soluble
MDSENAVKTTYGEFNGKKPFAVMLLGTDTGALDRTEKRGNTDTIIVVVVNPKKKNYTMISIPRDTMADMVGDDSNDVQKINAAYSIGGAKMAMKTVSNLLNIPVKYYALVNMGGLMKLVDYVGGIYVTPPLTFTYSGFPFKKRVRQHLNGQAALAYSRMRYDDPQGDYGRQKRQREVITKLVQKLATADSLTNFSKIANNLSSNVKTNLSFQALKSILANYSDCTSSSDSDYLHGYSTYVNDAAYQIAPTSELQRISNKIRKLLGLKTATVSNRETELNTLNETAGFKFGSGETQNYTLEHHHHHH | soluble
MDSENKTSIAIGCKVCNKYKVTKLLGGGSYGCVHEVIELKTGDRYAMKSEYSSMKKPILLNELKVMKAIYTFSSQHVLKVRDMGVHGSTKFIIMQMLEKNMDEVFELLGGSMTLNTAVATSYQCLEGLEFMHWAGFLHRDIKPNNYCLDANSGQGLRTIYIIDYGICKRFVDNNNVIRQPRKITKFRGTLDFAPIVSHELREHSRGSDLES | not soluble
MDSIERKKTKPYNINEKEILDIVAAKGSYLSSISENLEEVPPHKESSSRAESKKTITDEEVKKYIEALLNNFSSNRRKPLHIDAQVYECISDIVWAVRRKDFTVSGVISRILVEHIKENAGMIKKITGRDYKLLQP | not soluble
MDSLNNGWFSELQADLWPGQSFSLKVKEVIHKEKSRFQDIQIVETETYGRCLILDGIIQCTARDEFSYQEMISFLPLCAHPNPKKVLIVGGGDGGVAREVVKHPLVEEVHQVEIDDRVVELSKQYLPAMACGFANEKLKLTIGDGFDYMKKHKNEFDVIITDSSDPIGPAVSLFQESYYELMKHALKDDGIVCSQGGSFWLDLDYIKKTMSGCKEHFAKVAYAVTSVPSYPCGHIGFVMGSLNKNQDFATPKLGKSEIDSIDLRYYSSEVHSAAFALPRWVQKHFYELEHHHHHH | not soluble
MDSPQYLFLDFEFTMPETKTNPDGFCPEIIEVGLVAVVDDQIIGQFSSYVKPLRFPQLTERCKSFLNITQEQIDRGMSFYELVSLLRQYDRDRPTTVMTWGSMDMKVLRENCQSARVEFPFTGEHRDLAMEYKRFFGNKNQTALRKAVQEYGNEAVGKAHCALDDAFTAYTIFRLVENDKKYLAKTKPPTIGERIDLSQLRKKFAL | not soluble
MDTESFKREFLPYHRKLYCVAYRLLENAADAEDLVQEAYLKLWDKREGLSVISNPEAFSVTLVKNMCFDLLRSGKYVLSRQSVELSAAQDVFQPDNLEAREGVRQIKDIIAHLPEQQQRIINMRDIKGCSYEEIEQVTGLNSINVRVLLSRARKKIREEFNKWNNYESRRN | not soluble
MDTIWELDFYSRPLVDENNKKIWELLVCDRQQQFQFSKTCAGAEANARWLAAALEEAMDQWRQQLGLAEGVQPQRVRFFRRAMSSIITRGGEAAGLVMVPSRRTFALYDWLRDRATNFYPTLPNYQADLATPPQLPPPAPQPLPPALQGDRWQLSGLPLGEIKTAAEWELPFGEVPPLPFLTLNDDTLLPGLIIYSQRALPLAGWLSGLEPASLSFEETPQPLLILETGASDRWILIRGRNPQIQKELAAFKDACTQSQGLHFIAVKEQPTQETLQGFWLLQQTPELLEHHHHHH | soluble
MDTQNLPDQIIPIFMSFDKNYALGASVSLYSLLSHASRHTSMIDFSPLNQSNKLLGANIVYKIHCLVKGVTLEQQNKLLKTIAPFKKFASLEFIHINSLDHSIESYLNKSCSKRYGGLLVLCRLLLASLFPNYSKIISIDADTVFLGDVASAYFALDNDPTKSLGMVRDTFSHLSFEAFCDFCKRACKNFKIDFSRFSPDELKRIHQGFNMGFLVAHLDRWRQDGFEKTALEFLKTRGKDLFYPEQCLVNMVFWERILELPIYYNCYSDFFKEHYPKNIIMLHFIKYKPWRSVSSLNGRLICYEAEASFWLANLFHTPFKNDFFKERLEMAKDQQMQSFKTHIRSQTIRNYLGFRVKNILKKVFKLSLEHHHHHH | soluble
MDTSSSCKAFLLDSALAVKWPRDKETAPRLPQHRGWNPGDAPQTSQGRGTGTPVGAETKTLPSTDVAQPPSDSDAVGPRSGFPPQPSLPLCRAPGQLGEKQLPSSTSDDRVKDEFSDLSEGDVLSEDENDKKQNAQSSDESFEPYPERKVSGKKSESKEAKKSEEPRIRKKPGPKPGWKKKLRCEREELPTIYKCPYQGCTAVYRGADGMKKHIKEHHEEVRERPCPHPGCNKVFMIDRYLQRHVKLIHTEVRNYICDECGQTFKQRKHLLVHQMRHSGAKPLQCEVCGFQCRQRASLKYHMTKHKAETELDFACDQCGRRFEKAHNLNVHMSMVHPLTQTQDKALPLEAEPPPGPPSPSVTTEGQAVKPEPT | soluble
MDVAGLTDCGLIRKSNQDAFYIDEKHQRFFIVADGMGGHAGGEEASRLAVDHIRQYLETHLEDLQHDPVTLLRQAFLAANHAIVEQQRQNSARADMGTTAVVILLDEKGDRAWCAHVGDSRIYRWRKDQLQQITSDHTWIAQAVQLGSLTIEQARQHPWRHVLSQCLGREDLSQIDIQPIDLEPGDRLLLCSDGLTEELTDDVISIYLSEPNVQKAAAALVDAAKTHGGRDNVTVVVISV | soluble
MDVFDGLPDPIIVDILNKVGDVKTLLRCSSLSKRFNSLVPQSESLTLRLDHSVSDSPVVTSIFRSLFNGLVSLLSKPAKPITITTLSPSLPFKILSRFDRIRNLDVELPGGDVKLEKGAAVKWKAEFGKTLKSCVIVAFRSAGTVSSPVAVEGESDAEFVTGLKTRVVWTISALMAASSRHYLMREVVKEHEEIESLVMRDKEREGTVVMNEEGLKELRNTEARVEDEERVVKNKRSVVPSVRMSMRHAPSLKLKSGICLESATLVIVRPSGADFEVGDDAELATEAFVGDCMYGEAVVALLKCKKNALEMNSF | not soluble
MDVSQWEQFAKHRSAVIRDYGMWIGLMDNNMEPIVDMPAPVSIDAPITRMTPSSCKAVFKTRVDGHIHPMVDYLIAENLAKVDEQGQLIAAAQDAVFLAIEVAQGIRNVYKGVFTVALGDQESPTLLEFNGVCEIQWTLGALPCPSAPYSWTGKWVDLNQDWAGKWSKTRTMADIKVAEVADGFTLSGAADTTIGKLISQSLQAINTMLKSKGRSLPIAVKPVTSNPTSPQLVIRPTDRFIWDEISDLALAAGVTVKCKTWWPSDPPVPGLDLKEPIVVIEITQEE | not soluble
MDVTALCHKIFLHIHGLISADRYSLFLVCEDSSKDKFLISRLFDVAEGSTLEEASNNCIRLEWNKGIVGHVAAFGEPLNIKDAYEDPRFNAEVDQITGYKTQSILCMPIKNHREEVVGVAQAINKKSGNGGTFTEKDEKDFAEYLAFCGEVLHNAQLYETSLLENKRNLEHHHHHH | soluble
MDYHSNGNGINGMNGSSRHSADGPSTPTHSGNGHSNGEGNSTYWETAPAEMVELADKYNFTINEGSSIQQEALELRSVIRKDLTKKLKIKSGYSRIKLITSDRRQSEFLRYELSDLNEQIADLQEDLQALEMYNSGAFDEDVMYLDNLEDCDVENGPPSKLVILQLELEKELKVKRGLEQFLRGAPDKSKVHGDSQSLLDDSRAKIAMLRMQIERLSQEAPAVEGEPKTKVELAIDDLIIRFHKEKLIMDGSRNMIRILRSKRKPDSKAVDEAMNSYVIASEKADLIKLALLKYASSLPLEHDHRKYLI | not soluble
MDYREVDSTSEFVCRLEHGGDWRAQIEAFADEQGIDAGFFYGLGAVQDAELMFYDQDRTEYDSLTFDEPLEVAACMGNISHFDGERFAHTHAVLSRPDGEAVAGHLNAGTVWAGELYVRGFDTELQREHDEPTDLDLWNILEHHHHHH | not soluble
MDYTASYYTDEELAKLFKAAKGDPLELPIVLAAYYGLRRSEIIGLRWDAIDFNPDDPKITIQFTVTEVNFGDGQGNVIIEKEGTKSKASKRTLPLVKPIADLLLQKKKDIENNRRLCGSCYNDKYLDFVHVNEIGERMKPNYISQHFALLLEKHGLKKIRFHDLRHSCASLLYANGVSLKQIQEWLGHSDISTTANIYTHLDYNSKIATANAILPVLFDQLEHHHHHH | not soluble
MEAKLQVGVLGFGTVGSGVIHILEEHQEKISQVTGYHISVKKVLVRDLEKNRRYETKGFELTTNPSDVLDDPEIAVVVEVMGSITTAREYILQALKAGKHVVTANKDLIALHGDELVAVAQANNCDLFYEASVAGGIPILRTIVNSLAADKIQKVMGIVNGTTNFMLTKMTTEKKSYEEVLAEAQALGFAESDPTNDVDGIDAARKMVIMTRLAFGMNVNLDNVETSGIRGISPEDIEVAYQLGYKIKLVGTAEETNGTVNVNVGPVLLPKAHPLAGVNYENNAVFVTGAAVGETMFYGPGAGELPTATSVVSDLITVAKNSRLGTNGNAFNSYKHETKHTPKEQVFSKYYLRLTMDDKTGTFLKLTQIFAEAGVGFDKILQQPYDDFTATVVIVTHSTSQAQLEQAITRVKNEPEMQMLAKYSVVEG | soluble
MEAKTNTFLLVAERWWNVKKTSVTEDYADDIWRSLERDIFPAIGDISITEIKAHTLVKAVQPVQARGALETVRRLCQRINEVMIYAQNTGLIDAVPSVNIGKAFELEHHHHHH | not soluble
MEANTSSSGTVTGQRFAERRRSLPPGAELRQRLLKQLKELCDQIGKAYSTLVQKAALVIEPADQAVSLEPDTQRQATCITNLSDEGELWTTVYELNLGVQNLLMFIEDIRLLLLTQAQVPGPSVEENGLKTAGKGGCSPTELEGARFSDRLSSSNTHRFLEQLWDRYTP | soluble
